Our source for the Km and kcat values is PMC8098473, “Structural basis of chitin utilization by a GH20 β-N-acetylglucosaminidase from Vibrio campbellii strain ATCC BAA-1116” (Acta Crystallographica. Section D, Structural Biology, 2021).

Conditions in all cases: 100 mM sodium phosphate pH 7.0, 37°C, 10 min, 0–500 µM substrate
Series [1] concerns CC(=O)N[C@H]1[C@H](Oc2ccc([N+](=O)[O-])cc2)O[C@H](CO)[C@@H](O)[C@@H]1O. In words: purified protein. The format is biochemical, Vibrio harveyi.
Series [2] has as its target T1, VhGlcNAcase (Vibrio harveyi, UniProt D9ISE0, D437A).
T1 construct: full-length nag2 (residues 1-642) plus C-terminal RSRS-His6 (10 extra residues), pQE-60, E. coli M15 (pREP4); 74 kDa expected, 76 kDa by SEC; monomer; EC 3.2.1.52
The series is described as follows: colorimetric 4-nitrophenol release at […] nm, Michaelis-Menten fit. The format is biochemical.

Substrate in series [3]: CC(=O)N[C@H]1[C@H](Oc2ccc([N+](=O)[O-])cc2)O[C@H](CO)[C@@H](O)[C@@H]1O
In words: purified protein.

For VhGlcNAcase (Vibrio harveyi; H373A), in series [1], the Michaelis constant (Km) came to 307 ± 31 µM and the kcat was determined as 1.1 ± 0.06 s⁻¹.
As for VhGlcNAcase (Vibrio harveyi; E438A), in series [1], the Km stood at 128 ± 16 µM and the kcat worked out at 0.11 ± 0.005 s⁻¹.
With `CC(=O)N[C@H]1[C@H](Oc2ccc([N+](=O)[O-])cc2)O[C@H](CO)[C@@H](O)[C@@H]1O` [pNP-GlcNAc, 4-nitrophenyl N-acetyl-β-D-glucosaminide], the Km in series [2] was found to be 390 ± 32 µM.
With VhGlcNAcase (Vibrio harveyi; D532A), in series [1], the Michaelis-Menten constant (Km) turned out to be 153 ± 9 µM and the kcat came to 1.6 ± 0.03 s⁻¹.
With VhGlcNAcase (Vibrio harveyi; D303N), in series [1], the Km came to 325 ± 30 µM and the kcat is 1.8 ± 0.08 s⁻¹.
For VhGlcNAcase (Vibrio harveyi; D437N), in series [1], the Km was 339 ± 47 µM and the catalytic constant (kcat) is 0.02 ± 0.001 s⁻¹.
As for VhGlcNAcase (Vibrio harveyi; E438Q), in series [1], the Michaelis-Menten constant (Km) is on record as 120 ± 13 µM and the catalytic constant (kcat) was determined as 0.13 ± 0.005 s⁻¹.
On to VhGlcNAcase (Vibrio harveyi; E584A), for which, in series [1], the Michaelis-Menten constant (Km) stood at 178 ± 20 µM and the turnover number (kcat) is 18 ± 0.7 s⁻¹.
On to VhGlcNAcase (Vibrio harveyi; D303A), for which, in series [1], the Michaelis constant (Km) turned out to be 302 ± 28 µM and the kcat was determined as 1.4 ± 0.07 s⁻¹.

B1: VhGlcNAcase (Vibrio harveyi) (protein)
chain: MGGSEYRVDLVVLSEQKQNCRFGLTFHNLSDQDLNSWGLTFAFDRYILPDSVSNGQLTQIGSFCTLKPEGIVLAANHHYYCEFSIGSNPFRYYSDGFNEAMIDFVVDGQPQRAQVDVTPIVLASPYRERSDIPASLTHAQPLLPKPNHIEVSDHSFTFDEQAGVAIYTDLANSAKAWLLEELQRIHQFTLSSSNSGKIIFKSNPTLDEGAYKLKVSEESIKIEAGSSSGFTHACATLLQLLKRDEATKTMEAVCCSIIDSPRFRYRGMMLDCARHFHSVEQVKRLINLLAHYKLNTFHWHLTDDEGWRVEIKSLPQLTEIGAWRGIDETIEPQYTHLSQRYGGFYTQEEIRDVIAFAEQRGITIIPEIDVPGHCRAAIKSLPHLLIEAEDTTEYRSIQHYNDNVINPALPGSYEFIDKVLEEIAALFPAPYVHIGADEVPNGVWSKSPACQALMEQLGYTDYKELQGHFLRHAEDKLRKLGKRMLGWEEAQHGNKVSKDTVIYSWLSEEAALNCARQGFDVVLQPAQTTYLDMTQDYAPEEPGVDWANPLPLEKAYNYEPLAEVPADDPIRKRIWGIQTALWCEIINNPSRMDYMIFPRLTAMAEACWTEKQHRDWTDYLSRLKGHLPLLDLQGVNYRKPWK
For B1, the Km in series [3] turned out to be 92 ± 6 µM.
